Data on 2 molecules can be found in patent US20250042956A1 (University of California, published 2025).

The target in assay [1] is T1, AT2G17540.2 TRBIP2 (Arabidopsis thaliana).
T1 construct: Endogenous protein found by mass spectrometry
T1 chain: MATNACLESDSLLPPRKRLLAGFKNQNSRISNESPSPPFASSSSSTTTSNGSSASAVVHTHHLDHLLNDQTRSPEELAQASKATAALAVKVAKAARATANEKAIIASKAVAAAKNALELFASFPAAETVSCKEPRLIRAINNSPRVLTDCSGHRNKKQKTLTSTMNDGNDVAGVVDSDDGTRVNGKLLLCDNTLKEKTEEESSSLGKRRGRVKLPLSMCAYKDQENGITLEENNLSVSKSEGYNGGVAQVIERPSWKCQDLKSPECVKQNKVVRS
Kind of assay: IP-MS rep 2. Here is the method:
(§1) The method of IP-MS used in this Example has been described in a recent paper (see e.g., Xue, Nat. Comm., 2021). Ten grams of unopened floral buds from Col-0 wild type and FLAG-tag transgenic plants, including PHD1, MOM1, AIPP3, MOM2, MORC6, PIAL2, TRB1, TRB2, TRB3, JMJ14, HD2A, HD2B, and ELF7 were collected and ground into fine powder with liquid nitrogen. These samples were resuspended with 25 mL IP buffer and homogenized until lump-free by dounce homogenizer. The lysate was filtered through Miracloth and incubated with 250 μL anti-FLAG M2 magnetic beads (Sigma) at 4° C. for 2 hours. The magnetic beads were washed with IP buffer and eluted with TBS containing 250 μg/mL 3×FLAG peptides. The eluted proteins were precipitated with trichloroacetic acid (Sigma) and subject to MS analyses as described previously (see e.g., Xue, Nat. Comm., 2021).

The target of assay [2] is T2, AT4G35510.1 TRBIP1 (Arabidopsis thaliana).
T2 construct: Endogenous protein found by mass spectrometry
T2 chain: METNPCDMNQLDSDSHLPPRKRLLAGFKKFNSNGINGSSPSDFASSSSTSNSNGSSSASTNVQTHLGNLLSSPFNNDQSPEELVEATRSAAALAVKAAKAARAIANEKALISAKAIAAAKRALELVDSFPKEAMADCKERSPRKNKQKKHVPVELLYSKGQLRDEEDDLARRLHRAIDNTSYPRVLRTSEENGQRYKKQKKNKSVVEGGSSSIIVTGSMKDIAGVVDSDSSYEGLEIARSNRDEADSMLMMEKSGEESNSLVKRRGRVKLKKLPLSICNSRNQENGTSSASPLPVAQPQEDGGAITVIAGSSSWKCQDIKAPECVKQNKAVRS
Kind of assay: IP-MS rep 2. Here is the method:
as §1

In assay [3] the target is T3, AT2G23380.1 CLF (Arabidopsis thaliana, UniProt P93831 1-902).
T3 construct: Endogenous protein found by mass spectrometry; also called CURLY LEAF
T3 sequence (looked up): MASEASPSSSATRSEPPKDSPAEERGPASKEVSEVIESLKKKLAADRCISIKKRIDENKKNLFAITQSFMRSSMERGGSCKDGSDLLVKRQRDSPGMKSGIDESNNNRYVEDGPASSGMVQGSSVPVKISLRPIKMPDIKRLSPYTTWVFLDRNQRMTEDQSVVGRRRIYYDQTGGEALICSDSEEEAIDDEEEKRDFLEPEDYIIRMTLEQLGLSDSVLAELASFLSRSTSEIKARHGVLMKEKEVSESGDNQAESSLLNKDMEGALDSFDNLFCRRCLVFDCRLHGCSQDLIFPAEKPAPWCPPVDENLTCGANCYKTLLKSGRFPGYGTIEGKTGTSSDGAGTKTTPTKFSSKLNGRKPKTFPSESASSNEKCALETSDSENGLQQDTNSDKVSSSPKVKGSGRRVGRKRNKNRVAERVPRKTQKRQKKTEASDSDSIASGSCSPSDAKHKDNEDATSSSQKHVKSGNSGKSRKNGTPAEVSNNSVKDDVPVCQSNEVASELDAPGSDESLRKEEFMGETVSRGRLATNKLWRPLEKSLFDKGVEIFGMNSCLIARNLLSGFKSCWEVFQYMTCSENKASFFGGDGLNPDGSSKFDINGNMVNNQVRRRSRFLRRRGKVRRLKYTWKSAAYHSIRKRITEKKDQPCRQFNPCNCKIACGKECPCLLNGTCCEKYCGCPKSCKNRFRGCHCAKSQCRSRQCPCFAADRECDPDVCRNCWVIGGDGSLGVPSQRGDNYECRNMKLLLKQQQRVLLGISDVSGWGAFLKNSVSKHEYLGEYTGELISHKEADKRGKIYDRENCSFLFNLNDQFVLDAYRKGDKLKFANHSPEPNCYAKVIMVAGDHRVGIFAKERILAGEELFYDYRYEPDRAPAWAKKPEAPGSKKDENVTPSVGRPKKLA
Kind of assay: IP-MS rep 2. Here is the method:
as §1

Assay [4] deals with T4, AT3G49850.1 TRB3 (Arabidopsis thaliana, UniProt Q9M2X3 1-295).
T4 construct: Endogenous protein found by mass spectrometry
T4 sequence: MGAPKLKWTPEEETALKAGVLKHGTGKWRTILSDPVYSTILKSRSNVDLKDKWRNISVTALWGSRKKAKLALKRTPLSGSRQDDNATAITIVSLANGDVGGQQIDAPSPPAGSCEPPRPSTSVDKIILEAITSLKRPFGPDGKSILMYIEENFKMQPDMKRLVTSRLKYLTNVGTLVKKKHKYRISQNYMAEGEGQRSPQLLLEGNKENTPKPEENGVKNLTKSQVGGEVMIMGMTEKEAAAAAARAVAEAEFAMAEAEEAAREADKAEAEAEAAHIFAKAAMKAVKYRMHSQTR
In words: IP-MS rep 2. How it is done:
as §1

The target in assay [5] is T5, AT5G51230.1 EMF2 (Arabidopsis thaliana, UniProt Q8L6Y4 1-631).
T5 construct: Endogenous protein found by mass spectrometry; also called EMBRYONIC FLOWER 2
T5 sequence (looked up): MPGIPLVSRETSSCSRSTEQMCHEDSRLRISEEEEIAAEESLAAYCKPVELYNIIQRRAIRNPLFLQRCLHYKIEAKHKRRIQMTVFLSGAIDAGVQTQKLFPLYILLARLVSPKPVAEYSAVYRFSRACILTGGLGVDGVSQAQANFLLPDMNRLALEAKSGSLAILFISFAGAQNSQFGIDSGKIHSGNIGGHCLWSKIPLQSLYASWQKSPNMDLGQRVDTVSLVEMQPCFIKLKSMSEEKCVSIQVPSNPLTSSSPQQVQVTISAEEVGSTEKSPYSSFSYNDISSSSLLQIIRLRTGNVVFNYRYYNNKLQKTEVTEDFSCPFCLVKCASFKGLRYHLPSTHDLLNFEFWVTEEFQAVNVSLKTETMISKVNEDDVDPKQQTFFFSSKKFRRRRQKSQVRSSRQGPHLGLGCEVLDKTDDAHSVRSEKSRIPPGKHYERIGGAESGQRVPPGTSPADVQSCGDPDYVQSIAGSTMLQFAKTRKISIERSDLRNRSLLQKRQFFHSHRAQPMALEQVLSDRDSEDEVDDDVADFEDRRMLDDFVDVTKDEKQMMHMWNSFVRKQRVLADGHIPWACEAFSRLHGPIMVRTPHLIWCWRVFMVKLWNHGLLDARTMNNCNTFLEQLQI
In words: IP-MS rep 2. Here is the method: as §1

For assay [6], the target named is T1, AT2G17540.2 TRBIP2. In words: IP-MS rep 1. Here is the method:
as §1

The target in assay [7] is T2, AT4G35510.1 TRBIP1. Kind of assay: IP-MS rep 1. Here is the method: as §1
In assay [8] the target is T3, AT2G23380.1 CLF. In words: IP-MS rep 1. How it is done: as §1
The target in assay [9] is T4, AT3G49850.1 TRB3. In words: IP-MS rep 1. Here is the method: as §1
Assay [10] concerns the target T5, AT5G51230.1 EMF2. In words: IP-MS rep 1. Here is the method:
as §1

The target of assay [11] is T1, AT2G17540.2 TRBIP2. Kind of assay: X-link IP-MS.
In assay [12] the target is T2, AT4G35510.1 TRBIP1. Kind of assay: X-link IP-MS.
For assay [13], the target named is T3, AT2G23380.1 CLF. Kind of assay: X-link IP-MS.
The target of assay [14] is T4, AT3G49850.1 TRB3. In words: X-link IP-MS.
The target in assay [15] is T5, AT5G51230.1 EMF2. In words: X-link IP-MS.
Assay [16] concerns the target T6, AT4G20400.1 JMJ14 (Arabidopsis thaliana, UniProt Q8GUI6 1-954).
T6 construct: Endogenous protein found by mass spectrometry; also called JUMONJI 14
In words: IP-MS rep 2. How it is done: as §1

The target in assay [17] is T6, AT4G20400.1 JMJ14. Kind of assay: IP-MS rep 1. Here is the method: as §1
In assay [18] the target is T6, AT4G20400.1 JMJ14. Kind of assay: X-link IP-MS.

T6 sequence (Q8GUI6 whole entry): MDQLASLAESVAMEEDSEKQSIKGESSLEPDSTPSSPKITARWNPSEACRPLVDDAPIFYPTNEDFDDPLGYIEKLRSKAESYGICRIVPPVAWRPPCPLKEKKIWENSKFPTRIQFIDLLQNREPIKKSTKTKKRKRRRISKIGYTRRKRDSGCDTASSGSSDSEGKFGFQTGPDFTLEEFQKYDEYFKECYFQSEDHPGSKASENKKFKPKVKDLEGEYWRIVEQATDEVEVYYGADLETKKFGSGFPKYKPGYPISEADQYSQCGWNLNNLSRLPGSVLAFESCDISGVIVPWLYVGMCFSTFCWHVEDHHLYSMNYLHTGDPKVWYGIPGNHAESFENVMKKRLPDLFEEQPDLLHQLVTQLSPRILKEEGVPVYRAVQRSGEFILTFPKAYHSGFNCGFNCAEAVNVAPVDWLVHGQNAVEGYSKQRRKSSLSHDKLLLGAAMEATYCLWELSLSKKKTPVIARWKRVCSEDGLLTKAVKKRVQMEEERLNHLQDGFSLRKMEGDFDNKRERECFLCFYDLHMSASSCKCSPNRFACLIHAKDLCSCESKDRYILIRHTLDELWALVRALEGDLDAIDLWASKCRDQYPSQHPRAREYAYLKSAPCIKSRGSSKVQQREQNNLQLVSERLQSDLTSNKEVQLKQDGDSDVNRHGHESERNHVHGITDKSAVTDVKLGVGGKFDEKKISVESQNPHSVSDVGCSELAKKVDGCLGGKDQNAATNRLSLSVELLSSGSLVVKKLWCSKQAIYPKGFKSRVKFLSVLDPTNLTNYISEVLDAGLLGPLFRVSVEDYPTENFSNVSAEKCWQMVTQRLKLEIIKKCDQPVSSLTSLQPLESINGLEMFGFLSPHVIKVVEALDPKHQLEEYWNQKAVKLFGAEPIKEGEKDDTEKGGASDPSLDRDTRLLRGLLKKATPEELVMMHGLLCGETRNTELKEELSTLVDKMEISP

B1: FLAG-TRB1 (other, not shown: small tags and cut ends)
chain: MGAPKQKWTQEEESALKSGVIKHGPGKWRTILKDPEFSGVLYLRSNVDLKDKWRNMSVMANGWGSREKSRLAVKRTFSLPKQEENSLALTNSLQSDEENVDATSGLQVSSNPPPRRPNVRLDSLIMEAIATLKEPGGCNKTTIGAYIEDQYHAPPDFKRLLSTKLKYLTSCGKLVKVKRKYRIPNSTPLSSHRRKGLGVFGGKQRTSSLPSPKTDIDEVNFQTRSQIDTEIARMKSMNVHEAAAVAAQAVAEAEAAMAEAEEAAKEAEAAEAEAEAAQAFAEEASKTLKGRNICKMMIRA
notes: FLAG-tagged TRB1 from its native promoter in the trb1 mutant background; Printed both as TRB-FLAG and FLAG-TRB1; the vector description gives a C-terminal 3xFLAG-BLRP, so the tag position under the label FLAG-TRB1 is not certain; also called TRB1-FLAG; TRB-FLAG
B1: the IP-MS count in the assay with AT2G17540.2 TRBIP2 [1] came to 22; in the assay with AT4G35510.1 TRBIP1 [2], 11; in the assay with AT2G23380.1 CLF [3] it was 0; with AT3G49850.1 TRB3 [4] it was 0; with AT5G51230.1 EMF2 [5], 0; in the assay with AT2G17540.2 TRBIP2 [6], 18. The IP-MS count with AT4G35510.1 TRBIP1 [7] was 5; in the assay with AT2G23380.1 CLF [8], 0; in the assay with AT3G49850.1 TRB3 [9], 0; with AT5G51230.1 EMF2 [10], 0; with AT2G17540.2 TRBIP2 [11], 0; in the assay with AT4G35510.1 TRBIP1 [12], 0. In addition, the IP-MS count with AT2G23380.1 CLF [13], with AT3G49850.1 TRB3 [14] and with AT5G51230.1 EMF2 [15] was 0 each time.

B2: FLAG-TRB2 (other, not shown: small tags and cut ends)
chain: MGAPKQKWTPEEEAALKAGVLKHGTGKWRTILSDSEFSLILKSRSNVDLKDKWRNISVTALWGSRKKAKLALKRTPPGTKQDDNNTALTIVALTNDDERAKPTSPGGSGGGSPRTCASKRSITSLDKIIFEAITNLRELRGSDRTSIFLYIEENFKTPPNMKRHVAVRLKHLSSNGTLVKIKHKYRFSSNFIPAGARQKAPQLFLEGNNKKDPTKPEENGANSLTKFRVDGELYMIKGMTAQEAAEAAARAVAEAEFAITEAEQAAKEAERAEAEAEAAQIFAKAAMKALKFRIRNHPW
notes: FLAG-tagged TRB2 from its native promoter; tag position under the label FLAG-TRB2 not certain; also called TRB2-FLAG; TRB-FLAG
Regarding B2, the IP-MS count with AT2G17540.2 TRBIP2 [1] is 10; with AT4G35510.1 TRBIP1 [2] it was 22; with AT4G20400.1 JMJ14 [16], 4; with AT2G17540.2 TRBIP2 [6], 10; with AT4G35510.1 TRBIP1 [7] it was 22; with AT4G20400.1 JMJ14 [17], 3. Also, the figures for the IP-MS count with AT2G17540.2 TRBIP2 [11], in the assay with AT4G35510.1 TRBIP1 [12] and with AT4G20400.1 JMJ14 [18] were 7, 16 and 78, respectively.
